Assay results taken from US20240002475A1.

Assays:
[1] = target: GFP-tagged Nup84 (budding yeast) (budding yeast) (UniProt P52891); assay: time course of yeast Nup84-GFP isolation on magnetic beads
[2] = target: green fluorescent protein (GFP), recombinant (Aequorea victoria) [GFP: P42212]; assay: SPR, GFP immobilised; reference LaG-16 or LaG-2 alone
[3] = target: green fluorescent protein (GFP), recombinant (Aequorea victoria) [GFP: P42212]; assay: SPR, GFP immobilised

**Q.** How did the percent of maximum yield after 5 minutes [1] turn out when “LaG16-LaG2 fusion with a flexible glycine-rich linker” was run?
**A.** 80%

**Q.** What about the percent of maximum yield after 10 minutes [1] of the same substance?
**A.** 90%

**Q.** What about the fold lower Kd than either LaG alone [2] of the same substance?
**A.** 20 fold

**Q.** What about the Kd [3] of the same substance?
**A.** 0.036 nM
